For the assay, the target named is Human FcγRII, His-tagged domain (R&D Systems, Cat # 1330-CD) (human) (UniProt P12318). The assay can be described thus: SPR (Biacore 3000), His-tagged receptor captured by penta-His antibody on CM5 chip, antibody injected; steady-state RU relative to control.

For one substance, Relative Binding Capability (%) results are on record in patent publication US9644025.

As for Bapineuzumab (antibody), the Relative Binding Capability (%) came out at 100%.
